Test results from US20240425559A1 (UNIVERSITY OF PITTSBURGH OF THE COMMONWEALTH SYSTEM OF …, published 2024).

Tests used:
[1] = molecular target: TGF-β type II receptor (TβRII) on HEK-293 CAGA-Luc TGF-β reporter cells (UniProt P37173 23-567, limits assumed); assay: cell-based or functional assay
[2] = molecular target: T1, TGF-β type II receptor (TβRII) (UniProt P37173 38-159); assay: ITC, TβRII injected into the monomer, three replicates globally fit to a 1:1 model
T1 construct: A purified protein was injected in ITC and run on native gels; also called TbRII; transforming growth factor-β type II receptor
T1 sequence (P37173 38-159 limits assumed): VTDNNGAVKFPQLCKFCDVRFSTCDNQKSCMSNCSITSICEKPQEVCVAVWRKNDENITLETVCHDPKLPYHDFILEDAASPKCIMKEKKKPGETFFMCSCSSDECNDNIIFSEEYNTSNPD
Excerpt: (§1) FIG. 5: Binding of the engineered TGF-beta monomers (mmTGF-β2-7M, left; mmTGF-β2-7M2R, middle; and mmTGF-β2-2M-Del7-16, right) to the TGF-β type II receptor (TβRII) as detected by isothermal titration calorimetry (ITC). Upper panels depict the raw thermograms for three replicate titrations, while the lower panels depict the integrated heat (data points) for the three replicate titrations globally fit to a 1:1 binding isotherm (smooth line).
(§2) In order to evaluate the ability of the mmTGF-β2-7M variants described herein (mmTGF-β2-7M2R (SEQ ID NO: 4), mmTGF-β2-2M-Del7-16 (SEQ ID NO: 5), and mmTGF-β2-7M-PRDC (SEQ ID NO: 7)) to bind TβRII, isothermal titration calorimetry (ITC) and native gels were used. The ITC binding experiments were performed by injecting increasing amounts of TβRII into mmTGF-β2-7M2R (SEQ ID NO: 4) or mmTGF-β2-2M-Del7-16 (SEQ ID NO: 5), with mmTGF-β2-7M (SEQ ID NO: 3) used a reference control. These titrations yielded readily detectable isotherms with a large negative enthalpy and a near 1:1 binding stoichiometry (FIG. 5).

[3] = molecular target: T1, TGF-β type II receptor (TβRII); assay: ITC; TβRII injected into the monomer; three replicate titrations globally fit to a 1:1 binding isotherm
Excerpt: as §1, §2

TGF-β type II receptor (TβRII) on HEK-293 CAGA-Luc TGF-β reporter cells, sequence (P37173 23-567 limits assumed): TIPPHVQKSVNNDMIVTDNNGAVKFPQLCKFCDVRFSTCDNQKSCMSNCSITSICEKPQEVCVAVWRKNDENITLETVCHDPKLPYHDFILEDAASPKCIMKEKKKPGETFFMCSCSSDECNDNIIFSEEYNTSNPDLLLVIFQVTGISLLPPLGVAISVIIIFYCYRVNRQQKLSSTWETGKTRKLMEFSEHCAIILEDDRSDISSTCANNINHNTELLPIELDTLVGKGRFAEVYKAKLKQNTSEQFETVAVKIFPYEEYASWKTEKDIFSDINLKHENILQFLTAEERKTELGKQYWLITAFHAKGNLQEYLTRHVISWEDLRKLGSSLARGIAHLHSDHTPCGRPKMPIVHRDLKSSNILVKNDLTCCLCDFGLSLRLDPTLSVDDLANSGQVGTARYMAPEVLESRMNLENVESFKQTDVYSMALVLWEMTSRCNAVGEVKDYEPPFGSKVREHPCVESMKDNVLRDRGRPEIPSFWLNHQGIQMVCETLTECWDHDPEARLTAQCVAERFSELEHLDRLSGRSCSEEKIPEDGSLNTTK

Row | IC50, HEK-293 CAGA-Luc TGF-β reporter assay, stimulation with 10 pM TGF-β3 [1] [nM] | fold change of IC50 relative to mmTGF-β2-7M, HEK-293 CAGA-Luc TGF-β reporter assay [1] [fold] | Kd [2] [nM] | ΔG [3] [kcal/mol] | ΔH [3] [kcal/mol] | ΔS [3] [cal/mol•K] | Binder
1 | 282 | ~5 | – | – | – | – | mmTGF-β2-7M-PRDC (ligand) KEVLASSQEALVVTERKYLKSDWCKLRPLYIDFRKDLGWKWIHEPKGYNANFCYGQCNSFYIPRHVKKEEDSFQSSAFCVSQDLEPLTIVYYVGRKPKVEQLSNMIVKSCRCMSV
2 | 58.2 | – | 60.5 | -9.85 | -4.63 | 17.5 | mmTGF-β2-7M (ligand, also called engineered human TGF-β2 monomer mmTGF-β2-7M; mmTGF-B27M) ALDAAYCFRNVQDNCCLRPLYIDFRKDLGWKWIHEPKGYNANFCAGACPYRASKSPSCVSQDLEPLTIVYYVGRKPKVEQLSNMIVKSCKCS
3 | 111 | – | 80.1 | -10 | -7.67 | – | mmTGF-β2-2M-Del7-16 (ligand) ALDAAYVFRNVQDNCALRPLYIDFRRDLGWKWIHEPKGYNANFCAGACPYRASKSPSCVSQDLEPLTILYYIGRTPKIEQLSNMIVKSCKCS
4 | 53.3 | – | 75.1 | -10.1 | -10.5 | -1.44 | mmTGF-β2-7M2R (ligand) ALDAAYCFRNVQDNCCLRPLYIDFRKDLGWKWIHEPKGYNANFCAGACPYRASKSPRCRSQDLEPLTIVYYVGRKPKVEQLSNMIVKSCKCS
